The results in this text go back to publication PMC11965572.

In this test the target is wild-type human ACE2-Fc (human) (UniProt Q9BYF1). Kind of test: SEC; protein A-purified wild-type ACE2-Fc fractionated on a Superdex 200 column. (In general: Size exclusion chromatography separates by hydrodynamic size, large species first.)

As usually defined, the stoichiometry N is a count of units in the complex or per binding partner.

“And” between values parts separate entries of the source, which are not always exact repeats. Equal values may be shown once.

Regarding “wild-type human ACE2-Fc (from UniProt Q9BYF1 18-728) (Fc fusion)”, the percent as higher oligomers is 18%; the percent as tetramers was found to be 9%; the percent in a dimeric state worked out at 73%; the stoichiometry N was 2 and 4.
